# What was measured:
# [1] = target: T1, human TfR ectodomain fused to a mouse IgG1 Fc fragment (human, UniProt P02786 89-760); experiment: SPR, kinetic
# T1 construct: extracellular domain; ectodomain fused to the N-terminal end of the Fc, made in-house; not shown: mouse IgG1 Fc fragment
# Description: Binding properties of some VHHs were also evaluated using Surface Plasmon Resonance (SPR) experiments. The human, mouse and rhesus monkey TfR (having respectively GeneBank number NM_003234.2, NM_011638, NC_041755.1) ectodomains were fused to the N-terminal end of a mouse IgG1 Fc fragment and the recombinant proteins were produced and purified in-house. Interaction of VHHs with the receptors was tested using a Biacore T200 (GE Healthcare). Receptors were immobilized on an HC 1500M or a CM5 sensor chip (Xantec) either directly or on an anti-mouse IgG previously immobilized. VHHs were injected over flowcell by using the single-cycle kinetic or the multiple-cycle kinetic methods.
# [2] = target: T2, human transferrin receptor (hTfR) fused to EGFP, on CHO cells (human, UniProt P02786 1-760); experiment: apparent Kd, flow cytometry, CHO cells
# T2 construct: whole, on cells; also called human TfR; CHO-hTfR-EGFP; not shown: EGFP from pEGFP-C1 vector, fused to the N-terminal (intracellular) end of hTfR
# T2 sequence (P02786 whole entry, the tested form may be a part): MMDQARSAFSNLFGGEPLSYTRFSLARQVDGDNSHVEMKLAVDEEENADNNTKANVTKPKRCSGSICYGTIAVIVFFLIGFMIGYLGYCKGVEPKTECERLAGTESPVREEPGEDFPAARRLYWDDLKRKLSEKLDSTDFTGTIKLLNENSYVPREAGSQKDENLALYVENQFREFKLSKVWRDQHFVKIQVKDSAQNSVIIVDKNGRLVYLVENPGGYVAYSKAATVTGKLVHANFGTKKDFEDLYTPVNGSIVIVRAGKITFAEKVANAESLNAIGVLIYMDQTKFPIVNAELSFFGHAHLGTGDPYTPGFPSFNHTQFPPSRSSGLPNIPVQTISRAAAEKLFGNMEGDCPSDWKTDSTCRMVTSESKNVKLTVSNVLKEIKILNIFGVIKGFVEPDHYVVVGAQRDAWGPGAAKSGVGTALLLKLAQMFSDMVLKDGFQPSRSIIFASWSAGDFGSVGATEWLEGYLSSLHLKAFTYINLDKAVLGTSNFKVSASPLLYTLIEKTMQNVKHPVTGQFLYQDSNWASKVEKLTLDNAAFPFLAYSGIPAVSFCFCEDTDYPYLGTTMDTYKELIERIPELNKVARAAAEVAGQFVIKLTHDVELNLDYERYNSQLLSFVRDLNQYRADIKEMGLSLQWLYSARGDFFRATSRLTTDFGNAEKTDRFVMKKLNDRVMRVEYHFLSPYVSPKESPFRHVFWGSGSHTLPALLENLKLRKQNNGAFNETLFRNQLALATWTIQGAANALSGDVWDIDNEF
# Description: (§1) The binding properties of VHHs with affinity for the TfR from different species (i.e., human (h), mouse (m) and rhesus monkey (rh)) were tested using flow cytometry, and apparent affinities (Kd app) were determined. All experiments were performed in 96 well plates using 2×10⁵ cells/well, at 4° C. with shaking. CHO cell lines expressing the hTfR, mTfR or rhTfR fused to EGFP were saturated with PBS/BSA 2% solution during 30 min to avoid nonspecific binding, followed by incubation with purified VHHs at increasing concentrations for 1 hr. After one wash in PBS/BSA 2%, cells were incubated for 1 hr with an anti-6His tag antibody (mouse), washed twice with PBS/BSA 2%, and incubated for 1 hr with an Alexa647-conjugated anti-mouse secondary antibody. After two last washes in PBS/BSA 2%, cells were fixed by incubation for 15 min with PBS/PFA 2%, washed once with PBS and finally resuspended in PBS. Fluorescence levels were assessed using an Attune NxT flow cytometer (Thermo Fisher Scientific). Experimental data were fitted with GraphPad Prism® software using a nonlinear fit to determine the apparent Kd constants. […] Table 5 hereafter summarizes apparent Kd obtained for the tested VHHs.
# [3] = target: T3, mouse transferrin receptor (mTfR) fused to EGFP, on CHO cells (mouse, UniProt Q62351 1-763); experiment: apparent Kd, flow cytometry, CHO cells
# T3 construct: whole, on cells; also called mouse TfR; CHO-mTfR-EGFP; not shown: EGFP
# T3 sequence (Q62351 whole entry, the tested form may be a part): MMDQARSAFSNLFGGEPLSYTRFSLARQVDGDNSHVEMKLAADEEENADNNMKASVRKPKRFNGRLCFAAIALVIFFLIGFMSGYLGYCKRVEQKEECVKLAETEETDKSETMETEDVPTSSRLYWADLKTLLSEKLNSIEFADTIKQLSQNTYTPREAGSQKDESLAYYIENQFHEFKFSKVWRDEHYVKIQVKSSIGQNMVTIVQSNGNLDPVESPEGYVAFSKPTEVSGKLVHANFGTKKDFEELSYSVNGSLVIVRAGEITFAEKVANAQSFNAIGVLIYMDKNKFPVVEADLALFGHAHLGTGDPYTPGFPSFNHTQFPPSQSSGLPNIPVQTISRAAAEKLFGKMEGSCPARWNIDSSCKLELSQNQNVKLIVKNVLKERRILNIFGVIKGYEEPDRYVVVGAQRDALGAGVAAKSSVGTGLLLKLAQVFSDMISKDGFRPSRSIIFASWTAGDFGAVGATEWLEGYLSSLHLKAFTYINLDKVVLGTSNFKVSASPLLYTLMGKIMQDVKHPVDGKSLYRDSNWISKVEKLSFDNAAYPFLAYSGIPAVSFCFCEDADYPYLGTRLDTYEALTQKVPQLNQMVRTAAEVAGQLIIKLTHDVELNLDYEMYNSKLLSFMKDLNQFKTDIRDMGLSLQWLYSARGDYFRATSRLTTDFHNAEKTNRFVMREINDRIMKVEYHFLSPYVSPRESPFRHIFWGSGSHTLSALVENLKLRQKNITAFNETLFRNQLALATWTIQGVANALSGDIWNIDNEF
# Description: as §1
# [4] = target: T4, rhesus monkey transferrin receptor (rhTfR) fused to EGFP, on CHO cells (rhesus monkey); experiment: apparent Kd, flow cytometry, CHO cells
# T4 construct: whole, on cells; also called rhesus monkey TfR
# Description: as §1
# T1 sequence (P02786 89-760): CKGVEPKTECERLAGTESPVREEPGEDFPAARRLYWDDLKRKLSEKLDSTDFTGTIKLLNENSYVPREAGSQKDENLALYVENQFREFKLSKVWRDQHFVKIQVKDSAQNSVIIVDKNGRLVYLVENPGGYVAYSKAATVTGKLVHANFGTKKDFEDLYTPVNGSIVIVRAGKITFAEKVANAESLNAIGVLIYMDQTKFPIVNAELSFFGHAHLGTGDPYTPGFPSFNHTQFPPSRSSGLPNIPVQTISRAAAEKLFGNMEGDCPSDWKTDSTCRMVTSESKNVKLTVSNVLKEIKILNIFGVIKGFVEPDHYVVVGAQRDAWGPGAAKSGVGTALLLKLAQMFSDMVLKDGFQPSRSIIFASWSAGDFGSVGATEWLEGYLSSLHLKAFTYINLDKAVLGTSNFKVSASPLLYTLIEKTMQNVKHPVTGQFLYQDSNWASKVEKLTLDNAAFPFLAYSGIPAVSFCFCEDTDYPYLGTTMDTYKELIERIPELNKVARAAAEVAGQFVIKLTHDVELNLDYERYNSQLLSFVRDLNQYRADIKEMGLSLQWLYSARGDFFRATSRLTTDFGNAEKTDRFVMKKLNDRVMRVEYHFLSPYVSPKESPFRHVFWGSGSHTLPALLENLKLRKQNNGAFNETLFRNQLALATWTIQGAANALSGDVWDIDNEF
Binder,Kd [1] [nM],koff [1] [s⁻¹],kon [1] [M⁻¹ s⁻¹],Kd [2] [nM],Kd [3] [nM],Kd [4] [nM]
C5^h9 (VHH) VHH: EVQLVESGGGVVQPGGSLRLSCAASGTDFSINFIRWYRQAPGKGLEFVAGFTATGNTNYADSVKGRFTISRDNAKNTLYLQMNSLRPEDTAVYYCYMLDKWGQGTQVTVSS,10.6,0.00582,549000,6.1,431,493
B8^V7 (VHH) VHH: EVQLVESGGGVVQPGGSLRLSCAASGEIFSINFMRWYRQAPGKQREWVAGFTRDGYTNYPDSAKGRFTISRDNAKNTVYLQIDSLKPEDTAVYYCYMLDTWGQGTQVTVSS,–,–,–,5.7,41,2.6
B8^V25 (VHH) VHH: EVQLVESGGGVVQPGGSLRLSCAASGEIFSINFMRWYRQAPGKQREWVAAFTRDGSTNYPDSAKGRFTISRDNAKNTVYLQIDSLKPEDTAVYYCYMLDTWGQGTQVTVSS,–,–,–,14,2350,425
B8^V14 (VHH) VHH: EVQLVESGGGVVQPGGSLRLSCAASGEIFSINFMRWYRQAPGKQREWVAGFTRLGSTNYPDSAKGRFTISRDNAKNTVYLQIDSLKPEDTAVYYCYMLDTWGQGTQVTVSS,–,–,–,4.8,41,1.9
B8^V21 (VHH) VHH: EVQLVESGGGVVQPGGSLRLSCAASGEIFSINNMRWYRQAPGKQREWVAGFTRDGSTNYPDSAKGRFTISRDNAKNTVYLQIDSLKPEDTAVYYCYMLDTWGQGTQVTVSS,–,–,–,29,3350,469
B8^V30 (VHH) VHH: EVQLVESGGGVVQPGGSLRLSCAASGEIFSINFMRWYRQAPGKQREWVAGFTRDGSTNYPDSAKGRFTISRDNAKNTVYLQIDSLKPEDTAVYYCYMQDTWGQGTQVTVSS,–,–,–,24,3320,505
B8^V28 (VHH) VHH: EVQLVESGGGVVQPGGSLRLSCAASGEIFSINFMRWYRQAPGKQREWVAGFTRDGSTFYPDSAKGRFTISRDNAKNTVYLQIDSLKPEDTAVYYCYMLDTWGQGTQVTVSS,–,–,–,31,2500,755
B8^V23 (VHH) VHH: EVQLVESGGGVVQPGGSLRLSCAASGEIFSINFMIWYRQAPGKQREWVAGFTRDGSTNYPDSAKGRFTISRDNAKNTVYLQIDSLKPEDTAVYYCYMLDTWGQGTQVTVSS,–,–,–,29,1550,939
B8^V19 (VHH) VHH: EVQLVESGGGVVQPGGSLRLSCAASGEIFSINFMRWYRQAPGKQRHWVAGFTRDGSTNYPDSAKGRFTISRDNAKNTVYLQIDSLKPEDTAVYYCYMLDTWGQGTQVTVSS,–,–,–,6.2,7.6,2.3
B8^V17 (VHH) VHH: EVQLVESGGGVVQPGGSLRLSCAASGEIFSINFMRWYRQAPGKQREFVAGFTRDGSTNYPDSAKGRFTISRDNAKNTVYLQIDSLKPEDTAVYYCYMLDTWGQGTQVTVSS,–,–,–,4.8,5.2,2.5
A9a (VHH) VHH: QVQLVQSGGGLVQAGGSLRLSCAASGSIFLINDMGWYRQAPGKQRELVAVRGGSTKYGDSVKGRFTISRDDAKNTVYLQMNSLKPEDTAVYYCHRESGLGSSEYWGQGTQVTVSS,–,–,–,1860,841,965
B4a (VHH) VHH: EVQLVESGGGLVQAGGSLRLSCTASGRTVSNYRMGWFRQTPGKEREFVAAIAWAGGSLTYADSVKGRFTISRDNAKNTVYLQMNSLEPTDTAVYYCKGSRIFPTRDYWGKGTQVTVSS,–,–,–,692,409,479

# Continued by falling Kd [2], values first:
Kd [1] [nM],koff [1] [s⁻¹],kon [1] [M⁻¹ s⁻¹],Kd [2] [nM],Kd [3] [nM],Kd [4] [nM],Binder
–,–,–,4.7,684,4.3,B8^V15 (VHH) VHH: EVQLVESGGGVVQPGGSLRLSCAASGEIFSINFMRWYRQAPGKQREWVAGFTRDDSTNYPDSAKGRFTISRDNAKNTVYLQIDSLKPEDTAVYYCYMLDTWGQGTQVTVSS
–,–,–,4.6,22,2,B8^V11 (VHH) VHH: EVQLVESGGGVVQPGGSLRLSCAASDEIFSINFMRWYRQAPGKQREWVAGFTRDGSTNYPDSAKGRFTISRDNAKNTVYLQIDSLKPEDTAVYYCYMLDTWGQGTQVTVSS
–,–,–,4.5,6.4,1.8,B8^V20 (VHH) VHH: EVQLVESGGGVVQPGGSLRLSCAASGEIFSINFMRWYRQAPGKQREWVAGFTRDGSHNYPDSAKGRFTISRDNAKNTVYLQIDSLKPEDTAVYYCYMLDTWGQGTQVTVSS
0.985,0.00105,866000,4.1,22,40,C5^h20 (VHH) VHH: EVQLVESGGGVVQPGGSLRLSCAASGTDFSINFIRWYRQAPGKGLEFVAGFTATGNTNYADSVKGRFTISRDNAKNAVYLQMNSLRPEDTAVYYCYMLDKWGQGTQVTVSS
4.55,0.00357,786000,3.8,246,549,C5^V13h20 (VHH) VHH: EVQLVESGGGVVQPGGSLRLSCAASGTDFSINFIRWYRQAPGKGLEFVAGFSATGNTNYADSVKGRFTISRDNAKNAVYLQMNSLRPEDTAVYYCYMLDKWGQGTQVTVSS
–,–,–,3.8,16,2.7,B8^V6 (VHH) VHH: EVQLVESGGGVVQPGGSLRLSCAASGEIFSINFMRWYRQAPGKQREWVAGFTRDGFTNYPDSAKGRFTISRDNAKNTVYLQIDSLKPEDTAVYYCYMLDTWGQGTQVTVSS
–,–,–,3.8,43,1.6,B8^V18 (VHH) VHH: EVQLVESGGGVVQPGGSLRLSCAASGEIHSINFMRWYRQAPGKQREWVAGFTRDGSTNYPDSAKGRFTISRDNAKNTVYLQIDSLKPEDTAVYYCYMLDTWGQGTQVTVSS
–,–,–,2.8,31,2.4,B8^V9 (VHH) VHH: EVQLVESGGGVVQPGGSLRLSCAASGEIFSINFMRWYRQAPGKQREWVAGFTRDGSKNYPDSAKGRFTISRDNAKNTVYLQIDSLKPEDTAVYYCYMLDTWGQGTQVTVSS
–,–,–,2.5,8.1,2.1,B8^V8 (VHH) VHH: EVQLVESGGGVVQPGGSLRLSCAASGEIFSINFMRWYRQAPGKQREWVAGFTRDGSLNYPDSAKGRFTISRDNAKNTVYLQIDSLKPEDTAVYYCYMLDTWGQGTQVTVSS

# Source: patent publication US20230414780A1 (VECT HORUS, published 2023)
